T1: human Rad50 (human, UniProt Q92878 1-1312)
T1 construct: Captured by the 3xFLAG tag on anti-FLAG beads, then released by PreScission cleavage, so the tag is absent in the AFM samples; Expressed with Mre11 (and Nbs1) or alone; also called Rad50-3×FLAG; R of MRN, Mre11/Rad50 and M2R2; source: Sf9, baculovirus, purified (anti-FLAG M2 beads, eluted by PreScission cleavage, HiTrapQ, Superdex 200); not shown: 3xFLAG, C-terminal, cleaved
T1 sequence (looked up): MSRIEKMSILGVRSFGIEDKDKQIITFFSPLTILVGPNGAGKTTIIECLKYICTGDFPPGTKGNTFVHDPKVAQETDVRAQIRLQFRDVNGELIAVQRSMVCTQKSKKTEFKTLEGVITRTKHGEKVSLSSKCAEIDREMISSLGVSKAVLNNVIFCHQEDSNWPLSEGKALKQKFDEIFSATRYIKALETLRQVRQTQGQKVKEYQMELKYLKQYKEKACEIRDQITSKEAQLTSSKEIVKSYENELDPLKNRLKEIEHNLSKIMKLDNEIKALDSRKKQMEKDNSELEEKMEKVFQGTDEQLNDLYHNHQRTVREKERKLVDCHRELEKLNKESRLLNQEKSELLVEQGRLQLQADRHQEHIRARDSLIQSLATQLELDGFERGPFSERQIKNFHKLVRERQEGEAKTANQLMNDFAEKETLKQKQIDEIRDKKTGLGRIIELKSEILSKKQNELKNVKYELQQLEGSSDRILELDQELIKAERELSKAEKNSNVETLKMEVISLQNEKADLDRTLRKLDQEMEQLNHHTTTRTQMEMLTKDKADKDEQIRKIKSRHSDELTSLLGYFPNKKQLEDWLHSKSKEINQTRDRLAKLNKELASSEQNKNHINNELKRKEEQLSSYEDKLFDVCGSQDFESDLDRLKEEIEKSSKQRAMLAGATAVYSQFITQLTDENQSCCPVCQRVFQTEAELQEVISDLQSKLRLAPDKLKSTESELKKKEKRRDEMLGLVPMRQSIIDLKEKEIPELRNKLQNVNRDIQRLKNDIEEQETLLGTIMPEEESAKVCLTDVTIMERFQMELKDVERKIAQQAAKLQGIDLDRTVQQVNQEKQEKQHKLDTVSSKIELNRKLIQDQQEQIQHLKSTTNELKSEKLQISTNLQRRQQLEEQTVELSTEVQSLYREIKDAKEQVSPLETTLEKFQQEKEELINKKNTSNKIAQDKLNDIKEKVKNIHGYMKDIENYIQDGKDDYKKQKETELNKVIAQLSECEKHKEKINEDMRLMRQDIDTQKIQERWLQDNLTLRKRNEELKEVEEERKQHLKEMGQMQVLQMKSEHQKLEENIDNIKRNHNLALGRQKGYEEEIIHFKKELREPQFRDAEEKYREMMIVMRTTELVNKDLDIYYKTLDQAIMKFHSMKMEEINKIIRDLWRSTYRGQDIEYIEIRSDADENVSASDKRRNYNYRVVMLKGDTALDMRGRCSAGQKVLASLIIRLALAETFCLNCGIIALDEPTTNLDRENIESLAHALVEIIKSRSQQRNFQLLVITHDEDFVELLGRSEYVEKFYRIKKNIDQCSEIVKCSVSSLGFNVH

B1: E. coli SbcC (natural protein)
chain: not shown
notes: SbcC (E. coli Rad50), E. coli; also called E. coli Rad50; SbcC of SbcCD; source: E. coli DL776 with plasmid pDL761, purified as SbcCD (HiTrap DEAE, ammonium precipitation, Superose 6, Mono Q)
B2: S. pombe Rad50 (natural protein, UniProt Q9UTJ8 1-1285, looked up)
chain: MSCIDRMSIMGIRSFDNRSRESIQFFSPLTLIVGQNGSGKTTIIECLKYATTGILPPNTKGGAFIHDPKICGEKEVLAQVKLAFRNTNQVKMICTRSLQLSVKKTTRQQKTLDGQLLILKDNERTTISNRCAELDSQVPLSLGVSKALLDYVIFCHQEESFWPLSEPANLKKRFDEIFESLRYAKALDQIKGLKRDQETQVKVDQATLTHYRSDKERAEKIELRVHESLKRISCIRSKVEELDQEITETARLQDELFKSTEEYEQQMITIRHLESQSDIINTTINDLKSQMTITDESSEDLEKLHSNFAEKVKEEQELYKSLEKKRSDLESLLKSRRELLEKLTGDLGKIQGEIESLEKLKVKKSTMINEIVHRYNINEINEEGIMTEVSKYASLVNKNYEISSGKLKERQVAVRARIEGIKAHEMFLNNRVSEINSSLEKQLTTQKELRSRFEILFPVKLQREDFTKDVEKSDLWIKSLRQEYESKNLLELLDKHQTALSSVENRLDEISEIVDSYHKYSGVRTKLQVFEENKTNKSAILANQLMTLKSSFSEVMSYELKDDDNYNEELDKLVEDVRKKLQEKEEAESSLRSVRERLEIRISLSVQSINDLTENKKIKTKTLKSYSGTFASMISEIKALESEIEENRKTLHSLQFGSTFYEKAIEICVDQHACQLCQRSLDKEEEKLFVEHCHSMIDVIPSKSAEVYSHLETLTKTFKNLSEAKPIFDEIELLDKRLSETKTELSDLQGDLQGLDIRKDEIQSELDTLYLRRANLEKLQLLVKDISNLEEEIRTIDRETEVLRIELPSSIAHHNLDEIYAEREKLLEKRGYLRKQIERTKLEETSFKKKIDDAVLANNEQKLKLTKLNFQVNELEQLEKDINKSSEDCDLQKKKLLEVSSKQGSQAPFLNELESEYEKLEADIQEMAQKSRTEILEANEYLHQLNEWNSELRIDVSTKFKCIKEKKSNIGEEVRIIASKIESTDDNLRKLQERLADLRTRERNASDNLRLRALMRQLEEAVTQKNYLLSQQSHDDRESFRERMQILKSKYGALNAERAGLLGECKQLENSITKDKEELNMEFKDADERFRRQLIKTKTTGKANEDLGKYAKALDVAIMQLHSMKMNEINRIVDELWKQTYCGTDIDTILIRSDSEGKGNRTYNYRVCMVKGDAELDMRGRCSAGQKVLACIIIRLALAECLGVNCGILALDEPTTNLDEENICSLAKNLSRIVEFRRKQANFQLIVITHDEQFIRLVNSDAYCSYYYRVKRDTNQKSMIVKEPL
notes: Rad50, S. pombe; The host is a wild-type strain, so endogenous Rad50 and Mre11 were also present; also called fission yeast Rad50; rad50:TEV:PA; source: S. pombe CA3, from pREP1-rad50:TEV:PA, co-purified with Mre11-3xFLAG (anti-FLAG M2 agarose, HRV3C elution, Superose 6HR)
B3: human Mre11 (natural protein, UniProt P49959 1-708, looked up)
chain: MSTADALDDENTFKILVATDIHLGFMEKDAVRGNDTFVTLDEILRLAQENEVDFILLGGDLFHENKPSRKTLHTCLELLRKYCMGDRPVQFEILSDQSVNFGFSKFPWVNYQDGNLNISIPVFSIHGNHDDPTGADALCALDILSCAGFVNHFGRSMSVEKIDISPVLLQKGSTKIALYGLGSIPDERLYRMFVNKKVTMLRPKEDENSWFNLFVIHQNRSKHGSTNFIPEQFLDDFIDLVIWGHEHECKIAPTKNEQQLFYISQPGSSVVTSLSPGEAVKKHVGLLRIKGRKMNMHKIPLHTVRQFFMEDIVLANHPDIFNPDNPKVTQAIQSFCLEKIEEMLENAERERLGNSHQPEKPLVRLRVDYSGGFEPFSVLRFSQKFVDRVANPKDIIHFFRHREQKEKTGEEINFGKLITKPSEGTTLRVEDLVKQYFQTAEKNVQLSLLTERGMGEAVQEFVDKEEKDAIEELVKYQLEKTQRFLKERHIDALEDKIDEEVRRFRETRQKNTNEEDDEVREAMTRARALRSQSEESASAFSADDLMSIDLAEQMANDSDDSISAATNKGRGRGRGRRGGRGQNSASRGGSQRGRADTGLETSTRSRNSKTAVSASRNMSIIDAFKSTRQQPSRNVTTKNYSEVIEVDESDVEEDIFPTTSKTDQRWSSTSSSKIMSQSQVSKGVDFESSEDDDDDPFMNTSSLRRNRR
notes: Mre11, human, from human MRE11 cDNA in pFASTBAC1; also called M of MRN, Mre11/Rad50 and M2R2; source: Sf9, baculovirus, co-purified with Rad50-3×FLAG (anti-FLAG M2 beads, HiTrapQ, Superdex 200)

Tests used:
[1] = molecular target: the molecule itself; assay: high-speed AFM; purified complexes on bare mica, imaged in 25 mM Tris-HCl pH 7.5, 75 mM KCl, 3 mM MgCl2, tapping mode; with or without 1 mM ATP or ATP-γ-S
human Rad50 = molecular target: T1, human Rad50; assay: co-purification (anti-FLAG affinity, ion exchange, size exclusion); proteins co-expressed in Sf9 cells; extract at 200 mM KCl on anti-FLAG M2 beads by Rad50-3×FLAG, eluted by PreScission cleavage, HiTrapQ; wild-type Mre11/Rad50 further on Superdex 200; molar ratio from the purified preparations; details: partners not purified

Binder | binding result [1] | stoichiometry N (human Rad50)
B1 | binds | –
B2 | binds | –
B3 | – | ~1 Rad50 to Mre11, molar ratio
